{
  "source": "paper PMC7616679",
  "about": "(Nature, 2024)",
  "key": {"[1]": {"biological_target": "T1, Recombinant Ce C19L1 full-length protein, untagged (C. elegans, UniProt O16216 1-533)", "T1 sequence": "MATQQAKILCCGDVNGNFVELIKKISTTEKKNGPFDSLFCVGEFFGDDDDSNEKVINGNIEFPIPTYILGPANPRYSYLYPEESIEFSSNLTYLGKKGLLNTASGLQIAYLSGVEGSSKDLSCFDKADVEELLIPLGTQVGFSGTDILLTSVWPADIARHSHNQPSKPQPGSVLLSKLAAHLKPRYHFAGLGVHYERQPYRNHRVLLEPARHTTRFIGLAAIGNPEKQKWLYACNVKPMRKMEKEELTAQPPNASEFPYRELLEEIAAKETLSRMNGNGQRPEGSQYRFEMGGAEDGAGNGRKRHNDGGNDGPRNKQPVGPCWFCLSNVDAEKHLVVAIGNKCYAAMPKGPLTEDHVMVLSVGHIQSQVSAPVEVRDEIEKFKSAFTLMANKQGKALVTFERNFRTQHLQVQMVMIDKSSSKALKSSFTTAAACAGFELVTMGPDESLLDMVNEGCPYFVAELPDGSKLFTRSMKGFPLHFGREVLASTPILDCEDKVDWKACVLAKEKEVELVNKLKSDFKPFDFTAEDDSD", "assay": "pull-down"}, "cryo-EM structure": {"biological_target": "the molecule itself", "assay": "cryo-EM structure"}, "[2]": {"biological_target": "Recombinant Ce DHX15 (10x-His-FLAG-3C-ceDHX15) (C. elegans, UniProt Q20875 1-739)", "sequence (Q20875 whole entry)": "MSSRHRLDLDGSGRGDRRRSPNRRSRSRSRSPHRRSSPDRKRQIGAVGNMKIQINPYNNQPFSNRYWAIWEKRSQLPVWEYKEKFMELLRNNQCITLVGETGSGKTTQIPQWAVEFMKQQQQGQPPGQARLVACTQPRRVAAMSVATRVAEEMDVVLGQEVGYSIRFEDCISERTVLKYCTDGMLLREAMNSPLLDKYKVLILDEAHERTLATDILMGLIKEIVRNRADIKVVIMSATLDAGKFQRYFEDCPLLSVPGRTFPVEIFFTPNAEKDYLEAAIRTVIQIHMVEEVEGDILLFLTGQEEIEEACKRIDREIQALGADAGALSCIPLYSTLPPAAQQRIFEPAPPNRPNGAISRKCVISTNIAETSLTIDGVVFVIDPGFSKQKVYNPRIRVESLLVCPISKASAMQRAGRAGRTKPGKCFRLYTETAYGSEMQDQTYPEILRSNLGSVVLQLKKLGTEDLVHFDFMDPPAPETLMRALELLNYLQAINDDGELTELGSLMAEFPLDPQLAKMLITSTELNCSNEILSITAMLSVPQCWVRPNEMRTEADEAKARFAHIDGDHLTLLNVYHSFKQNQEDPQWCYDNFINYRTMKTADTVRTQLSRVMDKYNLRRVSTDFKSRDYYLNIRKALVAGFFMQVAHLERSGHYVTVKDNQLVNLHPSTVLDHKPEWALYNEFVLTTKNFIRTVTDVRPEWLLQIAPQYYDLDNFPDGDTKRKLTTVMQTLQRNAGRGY", "assay": "pull-down"}, "[3]": {"biological_target": "T2, Recombinant Ce C19L1(1-277), untagged (C. elegans, UniProt O16216 1-277)", "T2 sequence": "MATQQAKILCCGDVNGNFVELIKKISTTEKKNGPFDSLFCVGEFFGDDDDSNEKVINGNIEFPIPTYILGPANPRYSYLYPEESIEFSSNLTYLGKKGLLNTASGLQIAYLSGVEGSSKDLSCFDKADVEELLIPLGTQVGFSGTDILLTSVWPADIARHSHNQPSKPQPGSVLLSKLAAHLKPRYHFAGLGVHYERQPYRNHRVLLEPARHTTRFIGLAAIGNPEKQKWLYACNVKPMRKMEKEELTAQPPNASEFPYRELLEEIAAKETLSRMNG", "assay": "pull-down"}},
  "data": [
    {"binder": "fluorescein-EDEKNKLSAKILKAEMKGDTDLVKKLKRKLESM-biotin", "note": "[ceC19L2(75-106)-wildtype peptide]", "values": [
      {"measurement": "binding result", "setting": "[1]", "result": "binds"}
    ]},
    {"binder": "3xFLAG-PRP19 (C. elegans, prp-19) (natural protein) MSFVCGISGELTEDPVVSQVSGHIFDRRLIVKFIAENGTDPISHGELSEDQLVSLKSGGTGSAPRNVSGTSIPSLLKMLQDEWDTVMLNSFSLRQQLQIARQELSHSLYQHDAACRVISRLSKELTAAREALSTLKPHTSAKVDDDVSIDESEDQQGLSEAILAKLEEKSKSLTAERKQRGKNLPEGLAKTEELAELKQTASHTGIHSTGTPGITALDIKGNLSLTGGIDKTVVLYDYEKEQVMQTFKGHNKKINAVVLHPDNITAISASADSHIRVWSATDSSSKAIIDVHQAPVTDISLNASGDYILSASDDSYWAFSDIRSGKSLCKVSVEPGSQIAVHSIEFHPDGLIFGTGAADAVVKIWDLKNQTVAAAFPGHTAAVRSIAFSENGYYLATGSEDGEVKLWDLRKLKNLKTFANEEKQPINSLSFDMTGTFLGIGGQKVQVLHVKSWSEVVSLSDHSGPVTGVRFGENARSLVTCSLDKSLRVFSF", "values": [
      {"measurement": "stoichiometry N", "setting": "cryo-EM structure", "result": 4}
    ]},
    {"binder": "fluorescein-SMNKGNISFVRGAGKTVQQNTTENPDEIDLD-biotin", "note": "[ceSYF1(788-818)-wildtype peptide]", "values": [
      {"measurement": "binding result", "setting": "[2]", "result": "binds"},
      {"measurement": "binding result", "setting": "[3]", "result": "binds"}
    ]}
  ]
}
